Data taken from patent US20220144916A1.

Columns and labels:
[1] = biological target: OVA/I-Ad on murine A20 antigen presenting cells pulsed with OVA323-339 peptide (hen; mouse) (UniProt P01012)
[2] = biological target: KJ1-26 clonotypic antibody

With “DO11.10 scTCR-Fc fusion protein (Vβ-linker-Vα format)” the Half-life [1] was 5.5 min and the EC50 (read off the curve) [2] was 0.03 nM.
